Values of other authors in article PMC4277939.

Biological target: EAG channel PAS domain PAS domain (Mus musculus) (UniProt Q60603)

EAG channel CNBh domain CNBh domain (from UniProt Q60603)
Kd: 10 µM
